The source of these data is US20230212304A1 (BIOSION, published 2023).

Residue numbers refer to the chain shown, from its start.

The target in assay [1] is T1, recombinant human CTLA4 protein with human IgG1 Fc tag at the C-terminus (Acro biosystems, Cat#CT4-H5255) (human, UniProt P16410 37-162).
T1 construct: bought protein; also called human CTLA4-Fc; CTLA4-Fc; not shown: human IgG1 Fc tag at the C-terminus
T1 sequence (looked up): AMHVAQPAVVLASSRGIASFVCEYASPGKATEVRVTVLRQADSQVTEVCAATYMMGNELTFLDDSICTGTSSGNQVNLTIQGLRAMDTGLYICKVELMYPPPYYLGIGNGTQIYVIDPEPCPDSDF
As to the kind of experiment: capture ELISA: antibody captured on coated plate (anti-human IgG Fc for the chimeric antibodies), biotin human CTLA4-Fc, streptavidin-HRP, OD(450-630). As to the method: Plates were washed once with wash buffer (PBS+0.05% v/v Tween-20, PBST) and then blocked with 200 µl/well blocking buffer (PBST with 5% w/v non-fatty milk) for 2 hours at 37° C. […] After a final wash, plates were incubated with 100 µl/well substrate TMB (Innoreagents, Cat#TMB-S-002). The reaction was stopped in 15 minutes at room temperature with 50 µl/well 1M H₂SO₄, and the absorbance of the each well was read on a microplate reader using dual wavelength mode with 450 nm for TMB and 630 nm as the reference wavelength, then the OD (450-630) values were plotted against antibody concentration. Data was analyzed using Graphpad Prism software and EC₅₀ values were reported.
For the capture ELISA, AffiniPure Goat Anti-Human IgG, Fcy fragment specific (Jackson Immuno Research, Cat#109-005-008) was used instead of AffiniPure Goat Anti-Mouse IgG, F(ab′)₂ fragment specific, 100 µl/well.

Assay [2] has as its target T2, recombinant human CTLA4-his protein (Acro biosystems, Cat#CT4-H5229) (human, UniProt P16410 37-162).
T2 construct: bought recombinant protein; not shown: his tag
T2 sequence (looked up): T1 sequence (looked up)
Put plainly: BLI, Octet; antibody from cell supernatant on AHC sensor, CTLA4-his as analyte. As to the method:
Briefly, AHC biosensors (anti-human IgG Fc capture, from ForteBio) were presoaked with 10 mM glycine (pH 1.5) for 3 seconds, and then dipped in a well with running buffer (0.5% w/v BSA in PBST) for 3 seconds, the soaking and dipping steps were repeated for three times. […] A new baseline was run for 180 seconds in another well with running buffer. […] Finally, sensors were presoaked with 10 mM glycine (pH 1.5) for 3 seconds, and then were dipped in a well with running buffer for 3 seconds, the soaking and dipping steps repeated for three times. The association and dissociation curves were fit to a 1:1 Langmuir binding model using ForteBio Data Analysis 8.1.
(Biolayer interferometry detects binding as a change in optical thickness at a sensor tip.)

B1: chimeric D1B8 anti-CTLA4 antibody (antibody, human IgG4 S228P, kappa, V domains shown)
VH: QIQLQQSGPELVKPGASVKISCKASGYTFTDYYINWVKQRPGQGLEWIGWIYPGNNNTRYNEKFKGKATLTIDTSSSTAFMHLSSLTSEDSAVYFCARYYFDYWGQGTTLTVSS
VL: DIQMTQSPSSLSASLGERISLTCRASQEITGYLSWLQQKPDGTIKRLIYAASTLDSGVPQRFSGSRSGSDYSLTISSLESEDFADYYCLQYASYPRTFGGGTKLEIKR
notes: mouse variable domains on human IgG4/kappa
Broadly, the EC50 is the concentration at which the effect is half-maximal. Consider B1, for which, in assay [1], the EC50 worked out at 2.84 nM.

B2: huC1D1-V5 (antibody, human IgG4 S228P, kappa, V domains shown)
VH: EVQLVESGGGLVQPGRSLRLSCTASGFTFSDNWMNWVRQAPGKGLEWVAQIRNKPYNYETYYSDSVKGRFTISRDDSKSIVYLQMNSLKTEDTAVYYCTGGMDYWGQGTTVTVSS
VL: DIQMTQSPSSLSASVGDRVTITCGASEIIYGALNWYQQKPGKSPKLLIYGATNLADGVPSRFSGSGSGTDFTLTISSLQPEDVATYYCQKILSPPPWTFGGGTKVEIKR
notes: humanized IgG4/kappa; tested as 293F cell supernatant on Octet; also called hu CTLA4 C1D1-V5
In general, Kd refers to the equilibrium constant for the complex coming apart. As usually defined, the koff is a measure of how fast the partners let go of each other. One may read the kon as a measure of how fast the partners come together. Consider B2, for which, in assay [2], the Kd amounted to 2.08 nM, the koff came to 0.000476 s⁻¹ and the kon amounted to 229000 M⁻¹ s⁻¹.

B3: huC1D1-V3 (antibody, human IgG4 S228P, kappa, V domains shown)
VH: B2 VH with A49G
VL: B2 VL with V58M, T69R, F71Y
notes: humanized IgG4/kappa; tested as 293F cell supernatant on Octet; also called hu CTLA4 C1D1-V3
Take B3: in assay [2], the Kd is 1.16 nM, the koff was determined as 0.000259 s⁻¹ and the kon came to 224000 M⁻¹ s⁻¹.

B4: huC1D1-V11 (antibody, human IgG4 S228P, kappa, V domains shown)
VH: B2 VH with A49G
VL: B2 VL with S43V
notes: humanized IgG4/kappa; tested as 293F cell supernatant on Octet; also called hu CTLA4 C1D1-V11
Regarding B4, in assay [2], the Kd stood at 1.25 nM, the koff was 0.000457 s⁻¹ and the kon worked out at 365000 M⁻¹ s⁻¹.

B5: huC1D1-V9 (antibody, human IgG4 S228P, kappa, V domains shown)
VH: B2 VH
VL: B2 VL with S43V
notes: humanized IgG4/kappa; tested as 293F cell supernatant on Octet; also called hu CTLA4 C1D1-V9
For B5, in assay [2], the dissociation constant Kd amounted to 0.736 nM, the koff stood at 0.000228 s⁻¹ and the kon was determined as 310000 M⁻¹ s⁻¹.

B6: huC1D1-V6 (antibody, human IgG4 S228P, kappa, V domains shown)
VH: B2 VH with V81A
VL: B2 VL
notes: humanized IgG4/kappa; tested as 293F cell supernatant on Octet; also called hu CTLA4 C1D1-V6
Turning to B6, in assay [2], the Kd was 0.821 nM, the dissociation rate constant (koff) came to 0.000287 s⁻¹ and the kon amounted to 349000 M⁻¹ s⁻¹.

B7: huC1D1-V2 (antibody, human IgG4 S228P, kappa, V domains shown)
VH: B2 VH with V81A
VL: B2 VL with V58M, T69R, F71Y
notes: humanized IgG4/kappa; tested as 293F cell supernatant on Octet; also called hu CTLA4 C1D1-V2
On to B7, for which, in assay [2], the Kd was 0.559 nM, the koff is 0.000149 s⁻¹ and the kon worked out at 267000 M⁻¹ s⁻¹.

B8: huC1D1-V7 (antibody, human IgG4 S228P, kappa, V domains shown)
VH: B2 VH with A49G
VL: B2 VL
notes: humanized IgG4/kappa; tested as 293F cell supernatant on Octet; also called hu CTLA4 C1D1-V7
Regarding B8, in assay [2], the Kd came to 0.362 nM, the off-rate constant (koff) is 0.000169 s⁻¹ and the kon came out at 466000 M⁻¹ s⁻¹.

B9: huC1D1-V1 (antibody, human IgG4 S228P, kappa, V domains shown)
VH: B2 VH
VL: B2 VL with V58M, T69R, F71Y
notes: humanized IgG4/kappa; tested as 293F cell supernatant on Octet; also called huCTLA4 C1D1-V1
For the molecule B9, in assay [2], the Kd was 0.184 nM, the off-rate constant (koff) is 4.61e-05 s⁻¹ and the on-rate (kon) was 250000 M⁻¹ s⁻¹.

B10: huC1D1-V12 (antibody, human IgG4 S228P, kappa, V domains shown)
VH: B2 VH with A49G, V81A
VL: B2 VL with S43V
notes: humanized IgG4/kappa; tested as 293F cell supernatant on Octet; also called hu CTLA4 C1D1-V12; huC1D1-VI2
With B10, in assay [2], the Kd was 0.995 nM, the koff was determined as 0.000304 s⁻¹ and the kon stood at 306000 M⁻¹ s⁻¹.

B11: huC1D1-V10 (antibody, human IgG4 S228P, kappa, V domains shown)
VH: B2 VH with V81A
VL: B2 VL with S43V
notes: humanized IgG4/kappa; tested as 293F cell supernatant on Octet; also called hu CTLA4 C1D1-V10
Take B11: in assay [2], the Kd turned out to be 0.943 nM, the koff was determined as 0.000304 s⁻¹ and the association rate constant (kon) was determined as 322000 M⁻¹ s⁻¹.

B12: huC1D1-V4 (antibody, human IgG4 S228P, kappa, V domains shown)
VH: B2 VH with A49G, V81A
VL: B2 VL with V58M, T69R, F71Y
notes: humanized IgG4/kappa; tested as 293F cell supernatant on Octet; also called hu CTLA4 C1D1-V4
In the case of B12, in assay [2], the Kd worked out at 0.952 nM, the off-rate (koff) turned out to be 0.000229 s⁻¹ and the kon is 240000 M⁻¹ s⁻¹.

B13: huD1D5-V7 (antibody, human IgG4 S228P, kappa, V domains shown)
VH: EVQLVESGGGLVKPGGSLRLSCAASGFTFSDYGMAWVRQAPGKGLEWVAFISNLAYSVYYADTETGRFTISRDDAKNSLYLQMNSLRAEDTAVYYCARSGLPYAMDYWGQGTTVTVSS
VL: DIQMTQSPSSLSASVGDRVTITCRASQDISNYLNWYQQKPGKVPKLLIYYISRLHSGVPSRFSGSGSGTDFTLTISSLQPEDVATYFCQQGRMLPWTFGGGTKVEIKR
notes: humanized IgG4/kappa; tested as 293F cell supernatant on Octet; also called hu CTLA4 D1D5-V7
Consider B13, for which, in assay [2], the dissociation constant Kd is 10.2 nM, the koff amounted to 0.000857 s⁻¹ and the kon turned out to be 83900 M⁻¹ s⁻¹.

B14: huD1D5-V5 (antibody, human IgG4 S228P, kappa, V domains shown)
VH: B13 VH with L45P
VL: B13 VL
notes: humanized IgG4/kappa; tested as 293F cell supernatant on Octet; also called hu CTLA4 DID5-V5
Regarding B14, in assay [2], the Kd was determined as 1.73 nM, the koff amounted to 0.00018 s⁻¹ and the association rate constant (kon) is 104000 M⁻¹ s⁻¹.

B15: huD1D5-V10 (antibody, human IgG4 S228P, kappa, V domains shown)
VH: B13 VH with D74N
VL: B13 VL with F87Y
notes: humanized IgG4/kappa; tested as 293F cell supernatant on Octet; also called hu CTLA4 D1D5-V10
For the molecule B15, in assay [2], the Kd was determined as 33 nM, the off-rate constant (koff) stood at 0.00163 s⁻¹ and the association rate constant (kon) worked out at 49300 M⁻¹ s⁻¹.

B16: huD1D5-V12 (antibody, human IgG4 S228P, kappa, V domains shown)
VH: B13 VH with A49S, D74N
VL: B13 VL with F87Y
notes: humanized IgG4/kappa; tested as 293F cell supernatant on Octet; also called hu CTLA4 D1D5-V12
As for B16, in assay [2], the Kd was found to be 37.4 nM, the koff stood at 0.00133 s⁻¹ and the on-rate (kon) worked out at 35500 M⁻¹ s⁻¹.

B17: huD1D5-V11 (antibody, human IgG4 S228P, kappa, V domains shown)
VH: B13 VH
VL: B13 VL with F87Y
notes: humanized IgG4/kappa; tested as 293F cell supernatant on Octet; also called hu CTLA4 D1D5-V11
For B17, in assay [2], the Kd stood at 6.94 nM, the koff is 0.000538 s⁻¹ and the association rate constant (kon) is 77500 M⁻¹ s⁻¹.

B18: huD1D5-V3 (antibody, human IgG4 S228P, kappa, V domains shown)
VH: B13 VH
VL: B13 VL with V43T, P44V
notes: humanized IgG4/kappa; tested as 293F cell supernatant on Octet; also called hu CTLA4 D1D5-V3
As for B18, in assay [2], the Kd was under 0.001 nM, the off-rate (koff) is under 1e-07 s⁻¹ and the kon is 115000 M⁻¹ s⁻¹.

B19: huD1D5-V2 (antibody, human IgG4 S228P, kappa, V domains shown)
VH: B13 VH with D74N
VL: B13 VL with V43T, P44V
notes: humanized IgG4/kappa; tested as 293F cell supernatant on Octet; also called hu CTLA4 D1D5-V2
Consider B19, for which, in assay [2], the Kd stood at 0.72 nM, the koff came to 6.25e-05 s⁻¹ and the kon is 86800 M⁻¹ s⁻¹.

B20: huD1D5-V4 (antibody, human IgG4 S228P, kappa, V domains shown)
VH: B13 VH with A49S, D74N
VL: B13 VL with V43T, P44V
notes: humanized IgG4/kappa; tested as 293F cell supernatant on Octet; also called hu CTLA4 D1D5-V4
Take B20: in assay [2], the dissociation constant Kd stood at 4.36 nM, the koff is 0.000408 s⁻¹ and the kon was 93500 M⁻¹ s⁻¹.

B21: huD1D5-V8 (antibody, human IgG4 S228P, kappa, V domains shown)
VH: B13 VH with A49S, D74N
VL: B13 VL
notes: humanized IgG4/kappa; tested as 293F cell supernatant on Octet; also called hu CTLA4 D1D5-V8
B21: in assay [2], the Kd was determined as 68.1 nM, the koff was 0.00196 s⁻¹ and the kon was 28800 M⁻¹ s⁻¹.

B22: huD1D5-V1 (antibody, human IgG4 S228P, kappa, V domains shown)
VH: B13 VH with L45P
VL: B13 VL with V43T, P44V
notes: humanized IgG4/kappa; tested as 293F cell supernatant on Octet; also called huCTLA4 D1D5-V1
For B22, in assay [2], the Kd was under 0.001 nM, the koff was under 1e-07 s⁻¹ and the kon amounted to 82000 M⁻¹ s⁻¹.

B23: huD1D5-V6 (antibody, human IgG4 S228P, kappa, V domains shown)
VH: B13 VH with D74N
VL: B13 VL
notes: humanized IgG4/kappa; tested as 293F cell supernatant on Octet; also called hu CTLA4 D1D5-V6
In the case of B23, in assay [2], the Kd was 25.8 nM, the koff came to 0.00157 s⁻¹ and the kon stood at 60900 M⁻¹ s⁻¹.
